Paper PMC8669218

Molecular target: extracellular domain of human DPP4 (residues 39-766), wild type (human), P27487
Assay: nonreducing SDS-PAGE
Conditions: remark: other sources report otherwise

B1: extracellular domain of human DPP4 (residues 39-766), wild type, P27487 39-766 (domain or fragment)
chain: SRKTYTLTDYLKNTYRLKLYSLRWISDHEYLYKQENNILVFNAEYGNSSVFLENSTFDEFGHSINDYSISPDGQFILLEYNYVKQWRHSYTASYDIYDLNKRQLITEERIPNNTQWVTWSPVGHKLAYVWNNDIYVKIEPNLPSYRITWTGKEDIIYNGITDWVYEEEVFSAYSALWWSPNGTFLAYAQFNDTEVPLIEYSFYSDESLQYPKTVRVPYPKAGAVNPTVKFFVVNTDSLSSVTNATSIQITAPASMLIGDHYLCDVTWATQERISLQWLRRIQNYSVMDICDYDESSGRWNCLVARQHIEMSTTGWVGRFRPSEPHFTLDGNSFYKIISNEEGYRHICYFQIDKKDCTFITKGTWEVIGIEALTSDYLYYISNEYKGMPGGRNLYKIQLSDYTKVTCLSCELNPERCQYYSVSFSKEAKYYQLRCSGPGLPLYTLHSSVNDKGLRVLEDNSALDKMLQNVQMPSKKLDFIILNETKFWYQMILPPHFDKSKKYPLLLDVYAGPCSQKADTVFRLNWATYLASTENIIVASFDGRGSGYQGDKIMHAINRRLGTFEVEDQIEAARQFSKMGFVDNKRIAIWGWSYGGYVTSMVLGSGSGVFKCGIAVAPVSRWEYYDSVYTERYMGLPTPEDNLDHYRNSTVMSRAENFKQVEYLLIHGTADDNVHFQQSAQISKALVDVGVDFQAMWYTDEDHGIASSTAHQHIYTHMSHFIKQCFSLP
modifications: here or on the partner: glycosylated (sites not given); glycosylated (sites not given)
B1 gave a dimer percent of 40.8%.
